In paper PMC3873461, “The CD8-Derived Chemokine XCL1/Lymphotactin Is a Conformation-Dependent, Broad-Spectrum Inhibitor of HIV-1” (PLoS Pathogens, 2013):
Changes are numbered by the printed parent chain. Names may count otherwise.

B1: recombinant wild type (WT) XCL1/lymphotactin (ligand, human, UniProt P47992 22-114, looked up)
chain: VGSEVSDKRTCVSLTTQRLPVSRIKTYTITEGSLRAVIFITKRGLKVCADPQATWVRDVVRSMDRKSNTRNNMIQTKPTGTQQSTNTAVTLTG
notes: also called XCL1 WT
B2: XCL1 W55D, variant that preferentially adopts the all-β, alternatively-folded dimeric structure (ligand, human, UniProt P47992 22-114, looked up)
chain: B1 chain with W55D

Biological target: T1, purified YU2 gp120 protein (HIV-1 external envelope glycoprotein) (HIV-1 (strain YU2), UniProt P35961 32-498)
T1 construct: also called HIV-1 envelope glycoprotein gp120; source: purified
Assay: pull-down
Details: both partners purified

Row | Binder | binding result
1 | B1 | binds
2 | B2 | binds
